B1: EMC1-FLAG [human] / BCAP31, Strep-tagged [not stated] (parent)
chain 1: YEDQVGKFDWRQQYVGKVKFASLEFSPGSKKLVVATEKNVIAALNSRTGEILWRHVDKGTAEGAVDAMLLHGQDVITVSNGGRIMRSWETNIGGLNWEITLDSGSFQALGLVGLQESVRYIAVLKKTTLALHHLSSGHLKWVEHLPESDSIHYQMVYSYGSGVVWALGVVPFSHVNIVKFNVEDGEIVQQVRVSTPWLQHLSGACGVVDEAVLVCPDPSSRSLQTLALETEWELRQIPLQSLDLEFGSGFQPRVLPTQPNPVDASRAQFFLHLSPSHYALLQYHYGTLSLLKNFPQTALVSFATTGEKTVAAVMACRNEVQKSSSSEDGSMGSFSEKSSSKDSLACFNQTYTINLYLVETGRRLLDTTITFSLEQSGTRPERLYIQVFLKKDDSVGYRALVQTEDHLLLFLQQLAGKVVLWSREESLAEVVCLEMVDLPLTGAQAELEGEFGKKADGLLGMFLKRLSSQLILLQAWTSHLWKMFYDARKPRSQIKNEINIDTLARDEFNLQKMMVMVTASGKLFGIESSSGTILWKQYLPNVKPDSSFKLMVQRTTAHFPHPPQCTLLVKDKESGMSSLYVFNPIFGKWSQVAPPVLKRPILQSLLLPVMDQDYAKVLLLIDDEYKVTAFPATRNVLRQLHELAPSIFFYLVDAEQGRLCGYRLRKDLTTELSWELTIPPEVQRIVKVKGKRSSEHVHSQGRVMGDRSVLYKSLNPNLLAVVTESTDAHHERTFIGIFLIDGVTGRIIHSSVQKKAKGPVHIVHSENWVVYQYWNTKARRNEFTVLELYEGTEQYNATAFSSLDRPQLPQVLQQSYIFPSSISAMEATITERGITSRHLLIGLPSGAILSLPKALLDPRRPEIPTEQSREENLIPYSPDVQIHAERFINYNQTVSRMRGIYTAPSGLESTCLVVAYGLDIYQTRVYPSKQFDVLKDDYDYVLISSVLFGLVFATMITKRLAQVKLLNRAWR
chain 2: MSLQWTAVATFLYAEVFVVLLLCIPFISPKRWQKIFKSRLVELLVSYGNTFFVVLIVILVLLVIDAVREIRKYDDVTEKVNLQNNPGAMEHFHMKLFRAQRNLYIAGFSLLLSFLLRRLVTLISQQATLLASNEAFKKQAESASEAAKKYMEENDQLKKGAAVDGGKLDVGNAEVKLEEENRSLKADLQKLKDELASTKQKLEKAENQVLAMRKQSEGLTKEYDRLLEEHAKLQAAVDGPMDKKEE
B2: EMC1-FLAG [human] / TMEM38B, Strep-tagged [not stated] (parent)
chain 1: B1 chain 1
chain 2: MDSPWDELALAFSRTSMFPFFDIAHYLVSVMAVKRQPGAAALAWKNPISSWFTAMLHCFGGGILSCLLLAEPPLKFLANHTNILLASSIWYITFFCPHDLVSQGYSYLPVQLLASGMKEVTRTWKIVGGVTHANSYYKNGWIVMIAIGWARGAGGTIITNFERLVKGDWKPEGDEWLKMSYPAKVTLLGSVIFTFQHTQHLAISKHNLMFLYTIFIVATKITMMTTQTSTMTFAPFEDTLSWMLFGWQQPFSSCEKKSEAKSPSNGVGSLASKPVDVASDNVKKKHTKKNE
B3: EMC1-FLAG [human] / SLC3A2, Strep-tagged [not stated] (parent)
chain 1: B1 chain 1
chain 2: MSQDTEVDMKEVELNELEPEKQPMNAASGAAMSLAGAEKNGLVKIKVAEDEAEAAAAAKFTGLSKEELLKVAGSPGWVRTRWALLLLFWLGWLGMLAGAVVIIVRAPRCRELPAQKWWHTGALYRIGDLQAFQGHGAGNLAGLKGRLDYLSSLKVKGLVLGPIHKNQKDDVAQTDLLQIDPNFGSKEDFDSLLQSAKKKSIRVILDLTPNYRGENSWFSTQVDTVATKVKDALEFWLQAGVDGFQVRDIENLKDASSFLAEWQNITKGFSEDRLLIAGTNSSDLQQILSLLESNKDLLLTSSYLSDSGSTGEHTKSLVTQYLNATGNRWCSWSLSQARLLTSFLPAQLLRLYQLMLFTLPGTPVFSYGDEIGLDAAALPGQPMEAPVMLWDESSFPDIPGAVSANMTVKGQSEDPGSLLSLFRRLSDQRSKERSLLHGDFHAFSAGPGLFSYIRHWDQNERFLVVLNFGDVGLSAGLQASDLPASASLPAKADLLLSTQPGREEGSPLELERLKLEPHEGLLLRFPYAA

Variants of: B1
Assay: co-IP and immunoblot (quantified)
Settings: with BCAP31, Strep-tagged;; read off a plot
For chain 1 F948A F952A, the ratio to parent was 0.75. Work on chain 1 V941K S944K S945K yielded a ratio to parent of 0.57.

Variants of: B2
Assay: co-IP and immunoblot (quantified)
Settings: with TMEM38B, read off a plot
With chain 1 V941K S944K S945K the ratio to parent was 0.78. For chain 1 F948A F952A, the ratio to parent was 0.4.

Variants of: B3
Assay: co-IP and immunoblot (quantified)
Settings: with SLC3A2, Strep-tagged;; read off a plot
For chain 1 F948A F952A, the ratio to parent was 0.87. chain 1 V941K S944K S945K was tested, and the ratio to parent was 0.51.

From PMC12317982
